Test results as given in patent US20240132624A1 (Ablynx, published 2024).

Tests used:
[1] = target: T1, cyno FcRn/b2M (cyno, UniProt Q8SPV9 24-297; Q8SPW0 21-119, biotinylated); assay: SPR pH 7.4;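 also: surface plasmon resonance kinetics, periplasmic extracts diluted 1:10 flowed over immobilized target at 25 °C, 120 s association then 600–3600 s dissociation, buffer with 150 mM NaCl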
T1 construct: bought recombinant biotinylated protein (Immunitrack ITF05 or ACRO FCM-C82W5); also called cFcRn; cFcRn/cb2M
Experimental: (§1) All kinetic measurements have been performed on ProteOn XPR36 (BioRad Laboratories, Inc.), MASS-2 (Sierra sensors, Gmbh) or SPR-32 (Bruker Corporation). […] The phytip purified periplasmic extracts were diluted 1:10 in running buffer (CPA+150 mM NaCl+0.005% Tw20 at pH 5.5, pH 6.0 or pH 7.4) and injected over the ligand surfaces (association: 120 s at 45 μL/min; dissociation: 600s-3600 s at 45 μL/min). Experiments were carried out at 25° C.

[2] = target: T2, human FcRn/b2M (human, UniProt P61769 21-119, biotinylated); assay: SPR pH 7.4;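 also: surface plasmon resonance kinetics, periplasmic extracts diluted 1:10 flowed over immobilized target at 25 °C, 120 s association then 600–3600 s dissociation, buffer with 150 mM NaCl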
T2 construct: bought recombinant biotinylated protein (ACRO FCM-H82W4 or Immunitrack ITF01); also called hFcRn; hFcRn/hb2M
Experimental: as §1

[3] = target: T1, cyno FcRn/b2M; assay: SPR off-rate; pH 7.4 vs pH 6.0;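 also: surface plasmon resonance with diluted periplasmic extracts flowed over ligand surfaces, 120 s association and 600–3600 s dissociation at 25 °C, running buffer containing 150 mM NaCl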
Experimental: as §1

[4] = target: T2, human FcRn/b2M; assay: SPR off-rate; pH 7.4 vs pH 6.0;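 also: surface plasmon resonance with diluted periplasmic extracts flowed over ligand surfaces, 120 s association and 600–3600 s dissociation at 25 °C, running buffer containing 150 mM NaCl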
Experimental: as §1

[5] = target: T1, cyno FcRn/b2M; assay: SPR pH 6.0;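 also: surface plasmon resonance kinetics at 25 °C, diluted periplasmic extracts injected over immobilized ligand surfaces, 120 s association then 600–3600 s dissociation, running buffer containing 150 mM NaCl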
Experimental: as §1

[6] = target: T2, human FcRn/b2M; assay: SPR pH 6.0;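 also: surface plasmon resonance kinetics at 25 °C, diluted periplasmic extracts injected over immobilized ligand surfaces, 120 s association then 600–3600 s dissociation, running buffer containing 150 mM NaCl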
Experimental: as §1

T1 sequence (Q8SPV9 24-297 limits assumed, chain 1 of 2): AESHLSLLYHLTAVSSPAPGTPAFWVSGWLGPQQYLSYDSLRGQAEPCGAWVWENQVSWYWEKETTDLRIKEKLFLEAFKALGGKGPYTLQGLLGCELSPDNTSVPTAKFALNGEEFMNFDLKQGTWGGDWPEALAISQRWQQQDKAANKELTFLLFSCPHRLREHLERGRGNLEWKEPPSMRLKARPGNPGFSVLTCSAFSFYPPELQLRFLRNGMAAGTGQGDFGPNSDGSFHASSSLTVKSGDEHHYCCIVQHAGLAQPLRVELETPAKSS
T1 sequence (Q8SPW0 21-119 limits assumed, chain 2 of 2): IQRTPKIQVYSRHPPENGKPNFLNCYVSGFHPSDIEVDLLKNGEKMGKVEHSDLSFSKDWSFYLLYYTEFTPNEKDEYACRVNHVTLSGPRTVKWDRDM
T2 sequence (chain, as listed by the source limits assumed, chain 1 of 2): as the sequence (Q8SPV9 24-297 limits assumed, chain 1 of 2) above, with D39N, Q44E, S99G, G189S, N190S, M217L, T269S counted along it
T2 sequence (P61769 21-119 limits assumed, chain 2 of 2): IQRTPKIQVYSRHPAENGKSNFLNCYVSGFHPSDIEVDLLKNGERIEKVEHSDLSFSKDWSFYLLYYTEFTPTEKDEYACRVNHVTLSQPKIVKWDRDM

| Binder | koff [1] [s⁻¹] | koff [2] [s⁻¹] | kd ratio pH 7.4/6.0 [3] | kd ratio pH 7.4/6.0 [4] | koff [5] [s⁻¹] | koff [6] [s⁻¹] |
| --- | --- | --- | --- | --- | --- | --- |
| T0263018B11 T96I (VHH, name in Kabat numbering, FLAG3-His6 tagged) VHH: EVQLVESGGGVVQPGGSLRLSCAASGFTFSSYAMYWVRQAPGKGLEWVSAISSGGGSTDYADSVKGRFTISRDNSKNTLYLQMNSLRPEDTALYYCAADILYTSLTWYSYWGQGTLVTVSS | 0.024 | 0.036 | 57 | 52 | 0.00042 | 0.00069 |
| T0263018B11 T100bL (VHH, name in Kabat numbering, FLAG3-His6 tagged) VHH: EVQLVESGGGVVQPGGSLRLSCAASGFTFSSYAMYWVRQAPGKGLEWVSAISSGGGSTDYADSVKGRFTISRDNSKNTLYLQMNSLRPEDTALYYCAADTLYTSLLWYSYWGQGTLVTVSS | 0.18 | 0.14 | 56 | 38 | 0.0032 | 0.0037 |
| T0263018B11 W100cV (VHH, name in Kabat numbering, FLAG3-His6 tagged) VHH: EVQLVESGGGVVQPGGSLRLSCAASGFTFSSYAMYWVRQAPGKGLEWVSAISSGGGSTDYADSVKGRFTISRDNSKNTLYLQMNSLRPEDTALYYCAADTLYTSLTVYSYWGQGTLVTVSS | 0.18 | 0.5 | 76 | 61 | 0.0024 | 0.0082 |
| T0263018B11 T96Y (VHH, name in Kabat numbering, FLAG3-His6 tagged) VHH: EVQLVESGGGVVQPGGSLRLSCAASGFTFSSYAMYWVRQAPGKGLEWVSAISSGGGSTDYADSVKGRFTISRDNSKNTLYLQMNSLRPEDTALYYCAADYLYTSLTWYSYWGQGTLVTVSS | 0.017 | 0.024 | 50 | 45 | 0.00035 | 0.00054 |
| T0263018B11 Y32T (VHH, name in Kabat numbering, FLAG3-His6 tagged) VHH: EVQLVESGGGVVQPGGSLRLSCAASGFTFSSTAMYWVRQAPGKGLEWVSAISSGGGSTDYADSVKGRFTISRDNSKNTLYLQMNSLRPEDTALYYCAADTLYTSLTWYSYWGQGTLVTVSS | 0.21 | 0.19 | 60 | 42 | 0.0035 | 0.0045 |
| T0263018B11 Y32F (VHH, name in Kabat numbering, FLAG3-His6 tagged) VHH: EVQLVESGGGVVQPGGSLRLSCAASGFTFSSFAMYWVRQAPGKGLEWVSAISSGGGSTDYADSVKGRFTISRDNSKNTLYLQMNSLRPEDTALYYCAADTLYTSLTWYSYWGQGTLVTVSS | 0.019 | 0.026 | 46 | 39 | 0.00042 | 0.00066 |
| T0263018B11 Y32S (VHH, name in Kabat numbering, FLAG3-His6 tagged) VHH: EVQLVESGGGVVQPGGSLRLSCAASGFTFSSSAMYWVRQAPGKGLEWVSAISSGGGSTDYADSVKGRFTISRDNSKNTLYLQMNSLRPEDTALYYCAADTLYTSLTWYSYWGQGTLVTVSS | 0.14 | 0.19 | 52 | 35 | 0.0028 | 0.0054 |
| T0263018B11 T96V (VHH, name in Kabat numbering, FLAG3-His6 tagged) VHH: EVQLVESGGGVVQPGGSLRLSCAASGFTFSSYAMYWVRQAPGKGLEWVSAISSGGGSTDYADSVKGRFTISRDNSKNTLYLQMNSLRPEDTALYYCAADVLYTSLTWYSYWGQGTLVTVSS | 0.014 | 0.021 | 40 | 45 | 0.00036 | 0.00047 |
| T0263018B11 Y32L (VHH, name in Kabat numbering, FLAG3-His6 tagged) VHH: EVQLVESGGGVVQPGGSLRLSCAASGFTFSSLAMYWVRQAPGKGLEWVSAISSGGGSTDYADSVKGRFTISRDNSKNTLYLQMNSLRPEDTALYYCAADTLYTSLTWYSYWGQGTLVTVSS | 0.39 | 0.61 | 46 | 49 | 0.0084 | 0.013 |
| T0263018B11 W100cD (VHH, name in Kabat numbering, FLAG3-His6 tagged) VHH: EVQLVESGGGVVQPGGSLRLSCAASGFTFSSYAMYWVRQAPGKGLEWVSAISSGGGSTDYADSVKGRFTISRDNSKNTLYLQMNSLRPEDTALYYCAADTLYTSLTDYSYWGQGTLVTVSS | 0.13 | 0.14 | 45 | 19 | 0.003 | 0.0073 |
| T0263018B11 W100cL (VHH, name in Kabat numbering, FLAG3-His6 tagged) VHH: EVQLVESGGGVVQPGGSLRLSCAASGFTFSSYAMYWVRQAPGKGLEWVSAISSGGGSTDYADSVKGRFTISRDNSKNTLYLQMNSLRPEDTALYYCAADTLYTSLTLYSYWGQGTLVTVSS | 0.43 | 0.46 | 84 | 72 | 0.0051 | 0.0064 |
| T0263018B11 W100cG (VHH, name in Kabat numbering, FLAG3-His6 tagged) VHH: EVQLVESGGGVVQPGGSLRLSCAASGFTFSSYAMYWVRQAPGKGLEWVSAISSGGGSTDYADSVKGRFTISRDNSKNTLYLQMNSLRPEDTALYYCAADTLYTSLTGYSYWGQGTLVTVSS | 0.38 | 0.42 | 75 | 46 | 0.0051 | 0.0092 |
| T0263018B11 T96M (VHH, name in Kabat numbering, FLAG3-His6 tagged) VHH: EVQLVESGGGVVQPGGSLRLSCAASGFTFSSYAMYWVRQAPGKGLEWVSAISSGGGSTDYADSVKGRFTISRDNSKNTLYLQMNSLRPEDTALYYCAADMLYTSLTWYSYWGQGTLVTVSS | 0.047 | 0.067 | 49 | 42 | 0.00097 | 0.0016 |
| T0263018B11 W100cA (VHH, name in Kabat numbering, FLAG3-His6 tagged) VHH: EVQLVESGGGVVQPGGSLRLSCAASGFTFSSYAMYWVRQAPGKGLEWVSAISSGGGSTDYADSVKGRFTISRDNSKNTLYLQMNSLRPEDTALYYCAADTLYTSLTAYSYWGQGTLVTVSS | 0.5 | 0.5 | 81 | 50 | 0.0062 | 0.01 |
| T0263018B11 Y32Q (VHH, name in Kabat numbering, FLAG3-His6 tagged) VHH: EVQLVESGGGVVQPGGSLRLSCAASGFTFSSQAMYWVRQAPGKGLEWVSAISSGGGSTDYADSVKGRFTISRDNSKNTLYLQMNSLRPEDTALYYCAADTLYTSLTWYSYWGQGTLVTVSS | 0.099 | 0.14 | 75 | 60 | 0.0013 | 0.0023 |
| T0263018B11 W100cF (VHH, name in Kabat numbering, FLAG3-His6 tagged) VHH: EVQLVESGGGVVQPGGSLRLSCAASGFTFSSYAMYWVRQAPGKGLEWVSAISSGGGSTDYADSVKGRFTISRDNSKNTLYLQMNSLRPEDTALYYCAADTLYTSLTFYSYWGQGTLVTVSS | 0.15 | 0.16 | 63 | 44 | 0.0024 | 0.0036 |
| T0263018B11 W100cY (VHH, name in Kabat numbering, FLAG3-His6 tagged) VHH: EVQLVESGGGVVQPGGSLRLSCAASGFTFSSYAMYWVRQAPGKGLEWVSAISSGGGSTDYADSVKGRFTISRDNSKNTLYLQMNSLRPEDTALYYCAADTLYTSLTYYSYWGQGTLVTVSS | 0.075 | 0.09 | 50 | 43 | 0.0015 | 0.0021 |
| T0263018B11 T100bE (VHH, name in Kabat numbering, FLAG3-His6 tagged) VHH: EVQLVESGGGVVQPGGSLRLSCAASGFTFSSYAMYWVRQAPGKGLEWVSAISSGGGSTDYADSVKGRFTISRDNSKNTLYLQMNSLRPEDTALYYCAADTLYTSLEWYSYWGQGTLVTVSS | 0.025 | 0.032 | 51 | 45 | 0.00049 | 0.00071 |
| T0263018B11 T96Q (VHH, name in Kabat numbering, FLAG3-His6 tagged) VHH: EVQLVESGGGVVQPGGSLRLSCAASGFTFSSYAMYWVRQAPGKGLEWVSAISSGGGSTDYADSVKGRFTISRDNSKNTLYLQMNSLRPEDTALYYCAADQLYTSLTWYSYWGQGTLVTVSS | 0.092 | 0.091 | 46 | 35 | 0.002 | 0.0026 |
| T0263018B11 T96S (VHH, name in Kabat numbering, FLAG3-His6 tagged) VHH: EVQLVESGGGVVQPGGSLRLSCAASGFTFSSYAMYWVRQAPGKGLEWVSAISSGGGSTDYADSVKGRFTISRDNSKNTLYLQMNSLRPEDTALYYCAADSLYTSLTWYSYWGQGTLVTVSS | 0.053 | 0.053 | 44 | 33 | 0.0012 | 0.0016 |
| T0263018B11 W100cQ (VHH, name in Kabat numbering, FLAG3-His6 tagged) VHH: EVQLVESGGGVVQPGGSLRLSCAASGFTFSSYAMYWVRQAPGKGLEWVSAISSGGGSTDYADSVKGRFTISRDNSKNTLYLQMNSLRPEDTALYYCAADTLYTSLTQYSYWGQGTLVTVSS | 0.5 | 0.5 | 85 | 56 | 0.0059 | 0.009 |
